Test results taken from patent US20190367619A1 (ARGENX, published 2019).
One block for each binder: values may come before it.

Key:
[1] = biological target: T1, human galectin-10 as coated in ELISA (soluble galectin-10; tag not given) (human, UniProt Q05315 1-142, limits assumed); assay: ELISA, scFv periplasmic extract on coated soluble galectin-10, anti-Myc-HRP
T1 construct: also called coated galectin-10; Gal10
T1 sequence: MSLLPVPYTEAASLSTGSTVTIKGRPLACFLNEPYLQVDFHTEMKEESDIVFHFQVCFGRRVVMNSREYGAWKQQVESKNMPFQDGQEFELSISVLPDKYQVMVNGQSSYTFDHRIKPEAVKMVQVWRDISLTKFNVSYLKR

[2] = biological target: T2, human galectin-10-His (recombinant human galectin-10 with TEV-cleavable N-terminal His-tag) (human); assay: BLI Octet RED96, galectin-10-His on anti-Penta-His tips, scFv periplasmic extract 1/10
T2 construct: SEC-MALLS: dimer in solution; also called Gal10-His; humanGal10-His
T2 chain: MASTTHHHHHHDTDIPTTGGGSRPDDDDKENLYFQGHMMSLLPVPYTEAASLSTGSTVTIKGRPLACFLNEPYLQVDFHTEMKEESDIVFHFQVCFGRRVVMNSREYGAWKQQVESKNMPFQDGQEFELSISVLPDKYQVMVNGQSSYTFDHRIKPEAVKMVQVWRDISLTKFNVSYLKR
Method: Briefly, galectin-10-His tagged diluted in Kinetic Buffer was captured on Anti-Penta His 1K sensor tips until an immobilization level of 1 nm was reached. Then, diluted periplasmic extracts (1/10) were applied and association/dissociation to immobilized galectin-10-His was measured using the ForteBio Data analysis 9.0 software (subtraction of the reference Tips, 1.1 binding model). During the screening, only the dissociation (off-rate) of the scFv can be determined since the effective concentration of the scFv is unknown and can vary a lot from clone to clone. […] Therefore, taking into consideration the ELISA and BLI data, a new panel of lead scFvs was selected.

[3] = biological target: T2, human galectin-10-His (recombinant …); assay: ELISA, Fab on coated galectin-10-His
[4] = biological target: T2, human galectin-10-His (recombinant …); assay: BLI OctetRed96, Fab on galectin-10-His

B1: scFv 6F06 (periplasmic extract, Myc-tagged) (scFv, not shown: small tags and cut ends)
scFv: QVQLVESGGGLVQPGGSLRLSCAASEFTFSRYSMSWVRQAPGKGLEWVSTINSGGGSTSYVDSVKGRFTISRDNAKNTLYLQMNSLKPEDTAVYYCTKSQGGISFSTQYGMDYWGKGTLVTVSSGGGGSGGGGSGGGGSNFMLTQPSAVSVSLGQTARITCQGGNFGRYYANWYQQKPGQAPVLVIYKDSERPSGIPERFSGSSSGDTATLTISGAQAEDESDYYCQSGSVSDNAVFGGGTHLAVL
ELISA binding (OD values) [1]: 3.8 OD | koff [2]: 0.0057 s⁻¹

B2: scFv 6E10 (periplasmic extract, Myc-tagged) (scFv, not shown: small tags and cut ends)
scFv: QLQLVESGGGLVQPGGSLRLSCAASGFTFSSYWMYWVRQAPGKGLEWVSAINTGGGSTYYADSVKGRFTISRDNAKNTLYLQMNSLKPEDTALYYCARAGSGVAGTGYDYWGQGTQVTVSSGGGGSGGGGSGGGGSQPVLNQPSAVSVSLGQTARITCQGGNFGYYYVSWYQQKPGQAPVLVIYRDSGRPSGIPERFSGSSSGDTATLTISGAQAEDEADYYCQSGSSSDNAVFGGGTHLTVL
notes: also called 6E010
ELISA binding (OD values) [1]: 3.7 OD | koff [2]: 0.016 s⁻¹

B4: 4E08 Fab (Fab, V domains shown)
VH: QVQRQESGPGLVKPSQTLSLTCTVSGGSITTSYYAWSWIRQPPGKGLEWMGVIASDGSTYYSPSLKSRTSISRDTSKNQFSLQLSSVTPEDTAVYYCALYIRGSSWSGWSAYDYWGQGTQVTVSS
VL: QPVLNQPSAVSVSLGQTARITCQGGNFGYYYGSWYQQKPGQAPVLVIYKDSERPSGIPERFSGSSSGGTATLTISRAQAEDEADYYCQSADSSDNPVFGGGTHLTVL
notes: VH on human CH1 constant domain (with part of the hinge region), VL on human lambda constant domain; also called 4E8; Fab 4E8
Bmax [3]: 0.7 OD | EC50 [3]: 25.6 nM | Kd [4]: 147 nM | koff [4]: 0.00248 s⁻¹

B7: 1D11 Fab (Fab, V domains shown)
VH: QVQLVESGGGLVQPGGSLRLSCAASGFTFDDYAMSWVRQAPGKGLEWVSGISWNGGSTYYAESMKGRFTISRDNAKNTLYLQMNSLKSEDTAVYYCAKDRNLGYRLGYPYDYWGQGTQVTVSS
VL: QSVLTQPPSVSGSPGETVTISCAGTSSDVGYGNYVSWYQQLPGMAPRLLIYEVNKRASGITDRFSGSKSGNTASLTISGLQSEDEGDYYCASYRSSNNAVFGGGTHLTVL
notes: VH on human CH1 constant domain (with part of the hinge region), VL on human lambda constant domain; also called Fab 1D11; Fab-1D11
Bmax [3]: 0.9 OD | EC50 [3]: 1.6 nM | Kd [4]: 10.7 nM | koff [4]: 0.000299 s⁻¹

Next, values leading:

Bmax [3]: 1 OD | EC50 [3]: 1.9 nM | Kd [4]: 13.4 nM | koff [4]: 0.000383 s⁻¹
B3: 1C09 Fab (Fab, V domains shown)
VH: QVQLVESGPGLVKPSQTLSLTCTVSGGSITTNSYYWSWIRQPPGKGLEWMGAIAYSGSTYYSPSLKSRTSISRDTSKNQFTLHLSSVTPEDTAVYYCARRPNWYRALDAWGQGTLVTVSS
VL: NFMLTQPSAVSVSLGQTARITCQGANLGRYYGIWYQQKPGQAPVQVIYGDSNRPSGIPERFSGSSSGGTATLTISGAQAEDEADYYCQSYESSTSPVFGGGTHLTVL
notes: VH on human CH1 constant domain (with part of the hinge region), VL on human lambda constant domain; also called 1C9; Fab 1C09

Bmax [3]: 0.8 OD | EC50 [3]: 26.7 nM | Kd [4]: 188 nM | koff [4]: 0.00356 s⁻¹
B5: 6F05 Fab (Fab, V domains shown)
VH: QLQLVESGGGLVQPGGSLRLSCAASGFTFSSYAMSWVRQAPGKGLEWVSAINSGGGSTSYADSVKGRFTISRDNAKNTLYLQMNSLKPEDTAVYYCATPGDRLWYYRYDYWGQGTQVTVSS
VL: QAGLTQPPSVSGTLGKAVTISCAGTSSDIGYGNYVSWYQQLPGTAPKLLIYKVSRRASGVPDRFSGSKSGNTASLSISGLQSEDEADYYCASYRYRNNVVFGGGTHLTVL
notes: VH on human CH1 constant domain (with part of the hinge region), VL on human lambda constant domain; also called 6F5; Fab 6F5

ELISA binding (OD values) [1]: 3.7 OD | koff [2]: 0.0058 s⁻¹
B6: scFv 6B06 (periplasmic extract, Myc-tagged) (scFv, not shown: small tags and cut ends)
scFv: QVQRQESGPGLVKPSQTLSLTCTVSGGSITTNYYSWSWIRQPPGKGLEWIGYIAYSGSTSYSPSLKSRTSISRDTSNNQFSLQLSSVTPEDTAVYYCARSRSSPTTFGMDYWGKGTLVTVSSGGGGSGGGGSGGGGSSSALTQPSAVSVSLGQTARITCQGGNFGRYYVSWYTQKPGQAPVLVIYQDSERPTGIPERFSGSSSGDTATLTISGAQAEDEADYYCQSGTSSDNIVFGGGTHLTVL
